Experiment [1] deals with T1, human IL-1α (human, UniProt P01583 113-271).
T1 sequence (looked up): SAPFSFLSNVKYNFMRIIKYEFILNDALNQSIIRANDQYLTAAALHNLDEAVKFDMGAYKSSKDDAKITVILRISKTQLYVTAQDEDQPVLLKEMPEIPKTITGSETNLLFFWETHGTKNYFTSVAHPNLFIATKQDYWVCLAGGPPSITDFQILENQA
Briefly: cell-based or functional assay.

The target in experiment [2] is human IL-1β (human, UniProt P01584 117-269). As to the kind of experiment: cell-based or functional assay.

B1: ABT2-108/ABT1-122-505 hu IgG1/K wt (bispecific antibody, V domains shown)
VH: EVQLLESGGGLVQPGGSLRLSCAASGFTFAEYTMMWVRQAPGKGLEWVSRIGQDGKNTYYADSVKGRFTISRDNSKNTLYLQMNSLRAEDTAVYYCAKYTGRVGVHHLFDYWGQGTLVTSS
VL: DIQMTQSPSSLSASVGDRVTITCRASQPIWTELNWYQQKPGKAPKLLIYGSSSLQSGVPSRFSGSGSGTDFTLTISSLQPEDFATYYCKQFAYFPATFGQGTKVEIKR
For the molecule B1, the “IL-1α IC50” value in experiment [1] is 2000 nM. The “IL-1β IC50” value in experiment [2] was 20 nM.

B2: ABT2-108/ABT1-122-508 hu IgG1/K wt (bispecific antibody, V domains shown)
VH: EVQLLESGGGLVQPGGSLRLSCAASGFTFAEYTMMWVRQAPGKGLEWVSRIGQDGKNTYYADSVKGRFTISRDNSKNTLYLQMNSLRAEDTAVYYCAKYTGRVGVHHLFDYWGQGTLVTSS
VL: DIQMTQSPSSLSASVGDRVTITCRASQPIWTELNWYQQKPGKAPKLLIYGSSSLQRGVPSRFSGSGSGTDFTLTISSLQPEDFATYYCQQFAYFPATFGQGTKVEIKR
In the case of B2, in experiment [1], the “IL-1α IC50” value came out at 400 nM. Moreover, the “IL-1β IC50” value in experiment [2] stood at 20 nM.

B3: ABT2-108-538x/ABT1-122-555 hu IgG1/K wt (bispecific antibody, V domains shown)
VH: EVQLLESGGGLVQPGGSLRLSCAASGFTFADEGMMWVRQAPGKGLEWVSRITYSGKNTYYADSVKGRFTISRDNSKNTLYLQMNSLRAEDTAVYYCAKYTGRILGHHLFDYWGQGTLVTVSS
VL: DIQMTQSPSSLSASVGDRVTITCRASQPIWTELNWYQQKPGKTPKLLIYGSSSLQSGVPSRFSGSGSGTDFTLTISSLQPEDFATYYCQQFAYFPATFGQGTKVEIKR
Turning to B3, the “IL-1α IC50” value in experiment [1] is 25 nM. Also, the “IL-1β IC50” value in experiment [2] turned out to be 0.015 nM.

B4: ABT2-108-521/ABT1-122-511 hu IgG1/K wt (bispecific antibody, V domains shown)
VH: EVQLLESGGGLVQPGGSLRLSCAASGFTFAEYTMMWVRQAPGKGLEWVSRIGQDGKNTYYADSVKGRFTISRDNSKNTLYLQMNSLRAEDTAVYYCAKYTGRILGHHLFDYWGQGTLVTVSS
VL: DIQMTQSPSSLSASVGDRVTITCRASQPIWTELNWYQQKPGKAPKLLIYGSSSLQRGVPSRFSGSGSGTDFTLTISSLQPEDFATYYCKQFAYFPATFGQGTKVEIKR
With B4, the “IL-1α IC50” value in experiment [1] was found to be 150 nM. Also, in experiment [2], the “IL-1β IC50” value was found to be 0.16 nM.

B5: ABT2-108/ABT1-122-554 hu IgG1/K wt (bispecific antibody, V domains shown)
VH: EVQLLESGGGLVQPGGSLRLSCAASGFTFAEYTMMWVRQAPGKGLEWVSRIGQDGKNTYYADSVKGRFTISRDNSKNTLYLQMNSLRAEDTAVYYCAKYTGRVGVHHLFDYWGQGTLVTSS
VL: DIQMTQSPSSLSASVGDRVTITCRASQPIWTELNWYQQKPGKAPKLLIYGSSSLQSGVPSRFSGSGSGTDFTLTISSLQPEDFATYYCQQFAYFPATFGQETKVEIKR
With B5, the “IL-1α IC50” value in experiment [1] amounted to 150 nM. In addition, the “IL-1β IC50” value in experiment [2] came out at 9 nM.

B6: ABT2-108/ABT1-122-555 hu IgG1/K wt (bispecific antibody, V domains shown)
VH: EVQLLESGGGLVQPGGSLRLSCAASGFTFAEYTMMWVRQAPGKGLEWVSRIGQDGKNTYYADSVKGRFTISRDNSKNTLYLQMNSLRAEDTAVYYCAKYTGRVGVHHLFDYWGQGTLVTSS
VL: DIQMTQSPSSLSASVGDRVTITCRASQPIWTELNWYQQKPGKTPKLLIYGSSSLQSGVPSRFSGSGSGTDFTLTISSLQPEDFATYYCQQFAYFPATFGQGTKVEIKR
As for B6, the “IL-1α IC50” value in experiment [1] is 70 nM. Besides, the “IL-1β IC50” value in experiment [2] was 7 nM.

B7: ABT2-108-620x/ABT1-122-512 huIgG1/K wt (bispecific antibody, V domains shown)
VH: EVQLLESGGGLVQPGGSLRLSCAASGFTFAEESWMWVRQAPGKGLEWVSRIGQDGKNTYYREDVKGRFTISRDNSKNTLYLQMNSLRAEDTAVYYCAKYTGRIMGHHLFDYWGQGTLVTVSS
VL: DIQMTQSPSSLSASVGDRVTITCRASQPIWTELNWYQQKPGKAPKLLIYGSAKRQRGVPSRFSGSGSGTDFTLTISSLQPEDFATYYCKQFAYFPATFGQGTKVEIKR
For the molecule B7, the “IL-1α IC50” value in experiment [1] is 150 nM. Besides, in experiment [2], the “IL-1β IC50” value came to 0.006 nM.

B8: ABT2-108/ABT1-122-556 hu IgG1/K wt (bispecific antibody, V domains shown)
VH: EVQLLESGGGLVQPGGSLRLSCAASGFTFAEYTMMWVRQAPGKGLEWVSRIGQDGKNTYYADSVKGRFTISRDNSKNTLYLQMNSLRAEDTAVYYCAKYTGRVGVHHLFDYWGQGTLVTSS
VL: DIQMTQSPSSLSASVGDRVTITCRASQPIWTELNWYQQKPGKAPKLLIYGSSSLQSGVPSRFSGSGSGTDFTLTISSLQPEDFATYHCQQFAYFPATFGQGTKVEIKR
For B8, the “IL-1α IC50” value in experiment [1] came out at 150 nM. Moreover, the “IL-1β IC50” value in experiment [2] was 15 nM.

The values are drawn from patent publication US20090291081A1 (AbbVie / Abbott, published 2009).
